From US20080311034A1 (published 2008)

T1: recombinant human FcγRIIb (R&D Systems #1875-CD-050) (human, UniProt P31994 46-217, limits assumed)
T1 construct: Bought; also called CD32b; recombinant, soluble, human FcγRIIb
T1 sequence (looked up): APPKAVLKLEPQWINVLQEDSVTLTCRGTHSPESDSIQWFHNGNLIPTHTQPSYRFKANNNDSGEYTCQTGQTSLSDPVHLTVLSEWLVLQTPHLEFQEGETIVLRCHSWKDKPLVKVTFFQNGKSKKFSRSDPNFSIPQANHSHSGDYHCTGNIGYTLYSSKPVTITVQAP

T2: recombinant human His-tagged FcγRIIa (R&D Systems #1330-CD-050) (human, UniProt P12318 36-218, limits assumed)
T2 construct: Bought; also called CD32a; recombinant, soluble, human FcγRIIa
T2 sequence (looked up): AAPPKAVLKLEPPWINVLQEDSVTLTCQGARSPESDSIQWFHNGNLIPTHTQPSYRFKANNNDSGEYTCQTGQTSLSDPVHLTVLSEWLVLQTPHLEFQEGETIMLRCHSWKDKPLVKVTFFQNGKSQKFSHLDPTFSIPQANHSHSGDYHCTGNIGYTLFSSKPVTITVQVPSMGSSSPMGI


What was measured:
[1] = molecular target: T1, recombinant human FcγRIIb (R&D Systems …); test: AlphaScreen, FcγRIIb on nickel acceptor beads
Experimental: (§1) FcγRIIa (CD32a) AlphaScreen—Nickel acceptor beads (Perkin Elmer #6760619C) were diluted 1:50 in assay buffer (PBS, pH 7.4, 4 mg/ml BSA, 0.01% Tween-20), and 27.5 μl were added to each well of a Nunc V-bottom polypropylene plate (VWR # 62409-108) (Powers G., Notebook 9006, pp. 169-175, 182-185). A 2.0 μg/ml solution of recombinant human His-tagged FcγRIIa (R&D Systems #1330-CD-050) was prepared in assay buffer and 27.5 μl added to each well of a separate Nunc V bottom polypropylene plate. Titrations of test Abs were prepared in the Nunc V bottom polypropylene plate starting at 30 μg/ml. A 2 μg/ml solution of biotinylated goat F(ab′)₂ anti-human IgG F(ab′)₂ (Jackson Immunoresearch #109-066-097) was prepared in assay buffer and 27.5 μl added to each well of another Nunc V bottom polypropylene plate. A 1:50 dilution of streptavidin donor beads (PerkinElmer # 6760002) was prepared in assay buffer and 27.5 μl added to each well of another Nunc V bottom polypropylene plate. A volume of 5 μl of each reagent was added to the corresponding quadrants of a low-volume, non-binding white 384-well plate (Corning # 3673) in the following order: acceptor beads, FcγRIIa, test Ab, biotinylated anti-human IgG F(ab′)₂, and streptavidin donor beads. The plates were incubated for 30 minutes with shaking and the O.D.s determined using an Envision plate reader.
FcγRIIb (CD32b) AlphaScreen—The assay was performed as described above for FcγRIIa except that FcγRIIa was replaced with FcγRIIb (R&D Systems #1875-CD-050).

[2] = molecular target: T3, recombinant human His-tagged FcγRI (extracellular domain, R&D Systems #1257-FC-050) (human, UniProt P12314 16-292); test: ELISA, His-tagged FcγRI captured on HisGrab plate
T3 construct: extracellular domain; Bought; also called CD64; recombinant, soluble, human FcγRI
T3 sequence (P12314 16-292): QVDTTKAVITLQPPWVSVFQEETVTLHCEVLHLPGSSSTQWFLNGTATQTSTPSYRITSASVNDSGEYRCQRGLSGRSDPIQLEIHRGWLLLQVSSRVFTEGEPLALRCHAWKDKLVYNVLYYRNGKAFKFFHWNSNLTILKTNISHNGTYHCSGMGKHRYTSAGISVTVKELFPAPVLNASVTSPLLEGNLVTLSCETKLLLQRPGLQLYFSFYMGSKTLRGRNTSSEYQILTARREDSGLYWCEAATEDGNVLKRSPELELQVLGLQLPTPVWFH
Experimental: FcγRI (CD64) ELISA —50 μl of a 1 μg/ml solution of recombinant human His-tagged FcγRI (extracellular domain, R&D Systems #1257-FC-050) in ELISA buffer (PBS, pH 7.4, 4 mg/ml BSA, 0.01% Tween-20) was added to each well of HisGrab 96 well plates (Pierce #15142) (Powers G., Notebook 9006, pp. 166-168, 180-181). The plate was incubated with shaking for 3 hours. The plates were washed 3× with 300 μl of wash buffer (PBS, 0.01% Tween-20) on a plate washer. Serial dilutions of the CNTO860 antibody Fc-variant samples were made in ELISA buffer and 50 μl per well of each titration were added in duplicate to the FcγRI-coated plates. The plates were incubated with shaking for 1 hour. The plates were washed 3× with 300 μl of wash buffer on a plate washer. 50 μl of a 1:10,000 dilution of HRP-labeled goat F(ab′)₂ anti-human IgG F(ab′)₂ (Jackson Immunoresearch # 109-036-097) in ELISA buffer was added to each well. The plates were incubated with shaking for 30 minutes. The plates were washed 3× with 300 μl of wash buffer on the plate washer. 50 μl per well TMB substrate (RDI #RDI-TMBSU-1L) was added to each well and developed for 5 minutes. The reaction was stopped by adding 100 μl 0.2 N sulfuric acid. The plates were read at OD450 on an Envision plate reader.

[3] = molecular target: T4, recombinant human His-tagged FcγRIIIa (extracellular domain made at Centocor) (human, UniProt P08637 17-208); test: ELISA, His-tagged FcγRIIIa captured on HisGrab plate
T4 construct: extracellular domain; also called CD16a; recombinant, soluble, human FcγRIIIa
T4 sequence (P08637 17-208): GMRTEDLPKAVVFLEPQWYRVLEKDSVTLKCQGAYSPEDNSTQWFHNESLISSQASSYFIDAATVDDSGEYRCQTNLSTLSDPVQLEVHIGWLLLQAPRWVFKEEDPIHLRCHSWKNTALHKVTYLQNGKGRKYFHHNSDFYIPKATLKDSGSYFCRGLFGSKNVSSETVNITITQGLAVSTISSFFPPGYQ
Experimental: FcγRIIIa (CD16a) ELISA—A human FcγRIIIa binding assay was done in ELISA format similar to the assay for FcγRI above. 50 μl of a 2 μg/ml solution of recombinant human His-tagged FcγRIIIa (extracellular domain made at Centocor) in ELISA buffer (PBS, 4 mg/ml BSA, 0.01% Tween-20) was added to each well of HisGrab 96 well plates (Pierce #15142) (Powers G., Notebook 10378, 19-23). The plate was incubated for 3 hours at room temp. The plates were blocked with 200 μl of Starting Block (Pierce #15142) for 30 min, and then washed 3× with 300 μl of wash buffer (PBS, 0.01% Tween-20) on a plate washer. Serial dilutions of the CNTO 860 test samples were made in Starting Block buffer and 50 μl per well of each titration were added in duplicate to the FcγRIIIa-coated plates. The plates were incubated for 1 hour. The plates were washed 3× with 300 μl of wash buffer on a plate washer. 50 μl of a 1:10,000 dilution of HRP-labeled goat F(ab′)2 anti-human IgG F(ab′)2 (Jackson Immunoresearch # 109-036-097) in Starting Block buffer was added to each well. The plates were incubated for 30 minutes. The plates were washed 3× with 300 μl of wash buffer on the plate washer. 50 μl per well TMB substrate (RDI #RDI-TMBSU-1L) was added to each well and developed for 3-5 minutes. The reaction was stopped by adding 100 μl […] sulfuric acid. The plates were read at OD450 on an Envision plate reader. Antibody concentration vs OD450 values were graphed for each CNTO 860 variant and the antibody concentration needed to achieve an OD450 reading of 0.14 established by interpolation within each data curve.

[4] = molecular target: T2, recombinant human His-tagged FcγRIIa …; test: AlphaScreen, His-tagged FcγRIIa on nickel acceptor beads
Experimental: as §1

| Binder | concentration (ng/ml) required for an O.D. value of 200,000 [1] [ng/mL] | concentration (ng/ml) required for an O.D. value of 1.0 [2] [ng/mL] | concentration (ng/ml) required for an O.D. value of 0.14 [3] [ng/mL] | concentration (ng/ml) required for a set O.D. signal [4] [ng/mL] |
| --- | --- | --- | --- | --- |
| YB2/0-CNTO 860 I332E (antibody, human IgG1, kappa, Heavy chain N297 carries the YB2/0-type low-fucose N-linked glycan; not carried by the letters., IgG1/kappa Fc variant; stably expressed in YB2/0 cells (p4148/p2402), low-fucose glycan; EU numbering; also called I332E (YB2/0 cell-derived); I332E from YB2/0 cells; copies: 2 + 2) heavy: not shown light: DIQMTQSPSSLSASVGDRVTITCKASQDIRKYLNWYQQKPGKAPKLLIYYATSLADGVPSRFSGSGSGTDYTFTISSLQPEDIATYYCLQHGESPYTFGQGTKLEITRTVAAPSVFIFPPSDEQLKSGTASVVCLLNNFYPREAKVQWKVDNALQSGNSQESVTEQDSKDSTYSLSSTLTLSKADYEKHKVYACEVTHQGLSSPVTKSFNRGEC | 75 | 300 | 165 | 60 |
| YB2/0-CNTO 860 WT (antibody, human IgG1, kappa, Heavy chain N297 carries the YB2/0-type N-linked glycan (40-60% fucosylated); not carried by the letters., Anti-human tissue factor human IgG1/kappa; stably expressed in rat YB2/0 cells (p2401/p2402; YB2/0 Abs typically 40-60% fucosylated), purified by protein A; also called WT (YB2/0 cell-derived); WT from YB2/0 cells; copies: 2 + 2) heavy: not shown light: DIQMTQSPSSLSASVGDRVTITCKASQDIRKYLNWYQQKPGKAPKLLIYYATSLADGVPSRFSGSGSGTDYTFTISSLQPEDIATYYCLQHGESPYTFGQGTKLEITRTVAAPSVFIFPPSDEQLKSGTASVVCLLNNFYPREAKVQWKVDNALQSGNSQESVTEQDSKDSTYSLSSTLTLSKADYEKHKVYACEVTHQGLSSPVTKSFNRGEC | 120 | 420 | 1500 | 63 |
| YB2/0-CNTO 860 S239D/I332E (antibody, human IgG1, kappa, N-linked glycan at heavy chain Asn297 (YB2/0-type, low fucose); not carried by the letters, IgG1/kappa Fc variant; stably expressed in YB2/0 cells (p4179/p2402); EU numbering; also called S239D/I332E (YB2/0 cell-derived); copies: 2 + 2) heavy: not shown light: DIQMTQSPSSLSASVGDRVTITCKASQDIRKYLNWYQQKPGKAPKLLIYYATSLADGVPSRFSGSGSGTDYTFTISSLQPEDIATYYCLQHGESPYTFGQGTKLEITRTVAAPSVFIFPPSDEQLKSGTASVVCLLNNFYPREAKVQWKVDNALQSGNSQESVTEQDSKDSTYSLSSTLTLSKADYEKHKVYACEVTHQGLSSPVTKSFNRGEC | 20 | 300 | 120 | 60 |
| YB2/0-CNTO 860 V264I/I332E (antibody, human IgG1, kappa, N-linked glycan at heavy chain Asn297 (YB2/0-type, low fucose); not carried by the letters, IgG1/kappa Fc variant; stably expressed in YB2/0 cells (p4180/p2402); EU numbering; also called V264I/I332E (YB2/0 cell-derived); copies: 2 + 2) heavy: not shown light: DIQMTQSPSSLSASVGDRVTITCKASQDIRKYLNWYQQKPGKAPKLLIYYATSLADGVPSRFSGSGSGTDYTFTISSLQPEDIATYYCLQHGESPYTFGQGTKLEITRTVAAPSVFIFPPSDEQLKSGTASVVCLLNNFYPREAKVQWKVDNALQSGNSQESVTEQDSKDSTYSLSSTLTLSKADYEKHKVYACEVTHQGLSSPVTKSFNRGEC | 60 | 480 | 165 | 90 |
